Results taken from article PMC11273223 (Glycobiology, 2024).

What was measured:
[1] = target: T1, TcCGT1 (Trollius chinensis, UniProt A0A4Y5RXX8); experiment: HPLC end-point turnover to O- and C-glucosides; format: biochemical; details: 50 μM aloesone, 200 μM UDP-Glc, 50 mM HEPES, pH 7.4, 30 °C, overnight
T1 sequence (A0A4Y5RXX8 2-483): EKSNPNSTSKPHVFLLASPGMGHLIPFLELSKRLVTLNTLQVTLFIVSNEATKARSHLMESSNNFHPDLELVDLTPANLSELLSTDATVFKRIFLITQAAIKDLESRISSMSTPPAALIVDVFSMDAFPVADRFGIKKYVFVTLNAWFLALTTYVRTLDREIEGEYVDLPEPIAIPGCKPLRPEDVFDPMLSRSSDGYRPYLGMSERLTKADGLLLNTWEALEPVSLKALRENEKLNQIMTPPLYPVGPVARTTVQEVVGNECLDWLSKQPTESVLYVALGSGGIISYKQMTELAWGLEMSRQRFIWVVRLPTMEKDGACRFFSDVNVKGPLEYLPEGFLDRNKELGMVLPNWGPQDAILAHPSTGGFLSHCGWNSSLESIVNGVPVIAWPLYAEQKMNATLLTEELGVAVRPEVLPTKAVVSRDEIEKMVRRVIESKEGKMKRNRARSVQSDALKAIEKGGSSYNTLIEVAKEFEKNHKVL

[2] = substrate: CC(=O)Cc1cc(=O)c2c(C)cc(O)cc2o1; experiment: HPLC initial rates of O-glucoside formation, Michaelis-Menten fit; format: biochemical, Arabidopsis thaliana; details: 0.8 mM UDP-Glc, 50 mM HEPES, 50 mM NaCl, pH 7.4

`CC(=O)Cc1cc(=O)c2c(C)cc(O)cc2o1` [aloesone, 2-acetonyl-7-hydroxy-5-methylchromone] was tested. Which “HPLC end-point turnover to O- and C-glucosides” value [1] did it give?
The value was “both C-and O-glucosides were detected in the reaction with TcCGT1”.

B1: UGT71C1 (Arabidopsis thaliana) (protein)
chain: GKQEDAELVIIPFPFSGHILATIELAKRLISQDNPRIHTITILYWGLPFIPQADTIAFLRSLVKNEPRIRLVTLPEVQDPPPMELFVEFAESYILEYVKKMVPIIREALSTLLSSRDESGSVRVAGLVLDFFCVPMIDVGNEFNLPSYIFLTCSAGFLGMMKYLPERHREIKSEFNRSFNEELNLIPGYVNSVPTKVLPSGLFMKETYEPWVELAERFPEAKGILVNSYTALEPNGFKYFDRCPDNYPTIYPIGPILCSNDRPNLDSSERDRIITWLDDQPESSVVFLCFGSLKNLSATQINEIAQALEIVDCKFIWSFRTNPKEYASPYEALPHGFMDRVMDQGIVCGWAPQVEILAHKAVGGFVSHCGWNSILESLGFGVPIATWPMYAEQQLNAFTMVKELGLALEMRLDYVSEDGDIVKADEIAGTVRSLMDGVDVPKSKVKEIAEAGKEAVDGGSSFLAVKRFIGDLIDGVSISK
For B1, which Km [2] is on record?
The Km was 50.54 ± 7.29 µM.

What about the kcat [2] of the same molecule?
Its kcat is 0.27 ± 0.01 s⁻¹.

And the kcat/Km [2]?
The kcat/Km was 5000 M⁻¹ s⁻¹.
